Measured values as given in patent US20250057927A1, “ALPHA-1 A[…] FROM YEAST FOR USE IN THE TREATMENT OF VIRAL INFECTIONS” (priority 2021, published 2025).
“Also recorded” adds a separate entry of the source. Where a name gives a salt, the structure may show the parent alone.

Legend:
[1] = biological target: TMPRSS2 of Caco2 cells (UniProt O15393); assay: cell-based or functional assay
[2] = system: SARS-CoV-2; settings: pretreatment, Vero-E6 cells; cited from earlier work
[3] = system: Main Protease of coronaviruses; settings: enzymatical assays; cited from earlier work
[4] = system: PEDV; settings: pretreatment, Vero-E6 cells; cited from earlier work
[5] = system: lentiviral SARS-CoV-2 pseudoparticles; assay type: cell-based
[6] = system: protease-mediated entry of SARS-CoV-2; settings: in vitro; cited from earlier work
[7] = system: Covid-19; parameters: species or system patients; settings: in vivo
[8] = biological target: TMPRSS2 of Caco2 cells (UniProt O15393 1-492); assay: cell-based or functional assay
[9] = system: SARS-CoV-2; assay type: cell-based
[10] = biological target: T1, recombinant human TMPRSS2 (Homo sapiens, UniProt O15393); assay: TMPRSS2 activity assay (fluorogenic reporter peptide substrate); assay type: biochemical; settings: dose-dependent; read-out: IC50 of TMPRSS2 proteolytic activity
T1 construct: purchased LSBio LS-G57269
Protocol: The respective protease (TMPRSS2 or neutrophil elastase) is mixed with a serial dilution of rhAAT, camostat mesylate or Prolastin resulting in the formation of a complex between the test compound and the protease. Subsequently, a fluorogenic reporter peptide substrate is added. Upon cleavage of the reporter peptide substrate by the protease, a fluorescent dye is set free.
For assessing the activity of recombinant human TMPRSS2, 25 μl of serially diluted Prolastin, camostat mesylate or rhAAT is incubated with 25 μl of 2 μg/ml recombinant TMPRSS2 enzyme (LSBio #LS-G57269) in assay buffer (50 mM Tris-HCL, […] NaCl pH 8.0) for 15 min at 37° C. Next, 50 μl of 20 μM BOC-Gln-Ala-Arg-AMC protease substrate (Bachem #4017019) is added and incubated for 2 h at 37° C. Fluorescence intensity is measured after 2 h at an excitation wavelength of 380 nm and emission wavelength of 460 nm in a Synergy™ H1 microplate reader (BioTek) with Gen5 3.04 software. The assay is performed in a 96 well plate with flat bottom.

[11] = system: Caco-2 cells; settings: in the tested concentrations

Chain of TMPRSS2 of Caco2 cells (UniProt O15393 1-492) (O15393 whole entry): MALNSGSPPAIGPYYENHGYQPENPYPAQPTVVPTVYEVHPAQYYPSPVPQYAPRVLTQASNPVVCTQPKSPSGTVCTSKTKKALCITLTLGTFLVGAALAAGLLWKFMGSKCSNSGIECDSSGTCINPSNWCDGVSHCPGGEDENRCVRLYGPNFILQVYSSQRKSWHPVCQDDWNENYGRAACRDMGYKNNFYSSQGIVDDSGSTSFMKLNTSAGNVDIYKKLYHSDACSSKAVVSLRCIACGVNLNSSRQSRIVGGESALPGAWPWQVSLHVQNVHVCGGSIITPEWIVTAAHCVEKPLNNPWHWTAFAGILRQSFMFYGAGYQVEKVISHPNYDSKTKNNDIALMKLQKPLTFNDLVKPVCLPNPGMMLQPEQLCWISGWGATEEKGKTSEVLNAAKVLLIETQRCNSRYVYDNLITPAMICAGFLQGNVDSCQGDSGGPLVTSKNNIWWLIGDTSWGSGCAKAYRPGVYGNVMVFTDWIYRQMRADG
Chain of TMPRSS2 of Caco2 cells (UniProt O15393) (O15393 whole entry): as above
T1 sequence (O15393 whole entry): as above

Prolastin: human serum derived AAT (from UniProt P01009 25-418)
IC50 of inhibiting pseudoparticle entry into Caco2 cells (Prolastin) [1]: 3160 µg/mL
estimated IC90 of pseudoparticle entry into Caco2 cells, derived from FIG. 4 [1]: 20000 µg/mL

COc1cc(O)c(CC=C(C)C)c(O)c1C(=O)/C=C/c1ccc(O)cc1 [Xanthohumol]
SARS-CoV-2 replication [2]: restricted
inhibition of protease activities [3]: inhibited protease activities
PEDV replication [4]: restricted

CN(C)C(=O)COC(=O)Cc1ccc(OC(=O)c2ccc(NC(=N)N)cc2)cc1 [camostat mesylate, reference compound]
inhibition of the entry of SARS-CoV-2 pseudoparticles [5]: inhibits the entry of SARS-CoV-2

AAT
restriction of protease-mediated entry of SARS-CoV-2 [6]: potently restricts
Covid-19 PCR test [7]: negative
symptoms [7]: significantly improved; also recorded: no symptoms

Prolastin
inhibition of the entry of SARS-CoV-2 pseudoparticles [5]: inhibits the entry of SARS-CoV-2
Covid-19 rapid tests [7]: negative
symptoms [7]: no symptoms

B1: rec α1AT from supernatant of Pichia pastoris X33, anion exchange fractions 52 and 53 (other)
chain: EDPQGDAAQKTDTSHHDQDHPTFNKITPNLAEFAFSLYRQLAHQSNSTNIFFSPVSIATAFAMLSLGTKADTHDEILEGLNFNLTEIPEAQIHEGFQELLRTLNQPDSQLQLTTGNGLFLSEGLKLVDKFLEDVKKLYHSEAFTVNFGDTEEAKKQINDYVEKGTQGKIVDLVKELDRDTVFALVNYIFFKGKWERPFEVKDATEEEDFHVDQVTTVKVPMMKRLGMFNIQHCKKLSSWVLLMKYLGNATAIFFLPDEGKLQHLENELTHDIITKFLENEDRRSASLHLPKLSITGTYDLKSVLGQLGITKVFSNGADLSGVTEEAPLKLSKAVHKAVLTIDEKGTEAAGAMFLEAIPMSIPPEVKFNKPFVFLMIEQNTKSPLFMGKVVNPTQK
IC50 of inhibiting pseudoparticle entry into Caco2 cells (rec α1AT Fraction 52) [8]: 3060 µg/mL
IC50 of inhibiting pseudoparticle entry into Caco2 cells (rec α1AT Fraction 53) [8]: 3960 µg/mL

B2: rhAAT (protein)
chain: B1 chain
SARS-CoV-2 spike expression [9]: less detectable than Prolastin treated HAECs
inhibition of SARS-CoV-2 replication [9]: more effectively than Prolastin
viral titer [9]: reduce viral titer
IC50 [10]: ~350 nM
inhibition of the entry of SARS-CoV-2 pseudoparticles [5]: inhibits the entry of SARS-CoV-2 similar to Prolastin and camostat mesylate
pseudoparticle entry [5]: almost no pseudoparticle entry
toxicity for Caco-2 cells [11]: nontoxic
